Measured values from the supplement of paper PMC10724198.
± gives the standard deviation of the averaged measurements.

Tests used:
Saccharomyces cerevisiae [1] = test: protein stability index of tFT-peptide fusion (C-terminal peptide) (PSI (0-1 scale)); higher = more stable (slower turnover); conditions: genetic background: wild type; temperature: 30 C
Saccharomyces cerevisiae [2] = test: as above
Procedure: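 MPS profiling in S. cerevisiae of the tFT-X12 degron library: putative degron peptides plus stable controls, 12 aa, fused to the C-terminus of a sfGFP-mCherry timer. Cells are FACS-sorted into 8 mCherry/sfGFP bins and deep-sequenced. PSI runs from 0 (unstable) to 1 (stable). Backgrounds are wild type, das1Δ and doa10Δ at 30 °C, and wild type, das1Δ, cdc34-1 and cdc53-1 at 37 °C; 2-3 technical replicates each.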

[3] = genetic background: cdc34-1, temperature: 37 C
[4] = genetic background: cdc53-1, temperature: 37 C
[5] = genetic background: das1 deletion, temperature: 30 C
[6] = genetic background: das1 deletion, temperature: 37 C
[7] = genetic background: doa10 deletion, temperature: 30 C
[8] = genetic background: wild type, temperature: 30 C
[9] = genetic background: wild type, temperature: 37 C
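Also: PSI is a weighted mean of sequencing reads over stability bins, variants kept only with over 10 reads, mCherry proximal and sfGFP distal, peptide attached via GGGS linker.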

WHLLRFETQMFC
protein stability index (Saccharomyces cerevisiae [1]): 0.172 ± 0.049 | protein stability index (Saccharomyces cerevisiae [2]; [3]): 0.571 ± 0.018 | protein stability index (Saccharomyces cerevisiae [2]; [4]): 0.7091 ± 0.0027 | protein stability index (Saccharomyces cerevisiae [2]; [5]): 0.611 ± 0.037 | protein stability index (Saccharomyces cerevisiae [2]; [6]): 0.712 ± 0.022 | protein stability index (Saccharomyces cerevisiae [2]; [7]): 0.151 ± 0.028 | protein stability index (Saccharomyces cerevisiae [2]; [8]): 0.164 ± 0.016 | protein stability index (Saccharomyces cerevisiae [2]; [9]): 0.337 ± 0.0026

WHVSLRFAFYVF
protein stability index (Saccharomyces cerevisiae [1]): 0.22 ± 0.12 | protein stability index (Saccharomyces cerevisiae [2]; [3]): 0.2459 ± 0.0022 | protein stability index (Saccharomyces cerevisiae [2]; [4]): 0.326 ± 0.02 | protein stability index (Saccharomyces cerevisiae [2]; [5]): 0.235 ± 0.019 | protein stability index (Saccharomyces cerevisiae [2]; [6]): 0.342 ± 0.011 | protein stability index (Saccharomyces cerevisiae [2]; [7]): 0.136 ± 0.0056 | protein stability index (Saccharomyces cerevisiae [2]; [8]): 0.158 ± 0.018 | protein stability index (Saccharomyces cerevisiae [2]; [9]): 0.263 ± 0.0032

WIVQCCLYVPVQ
protein stability index (Saccharomyces cerevisiae [1]): 0.377 ± 0.0076 | protein stability index (Saccharomyces cerevisiae [2]; [3]): 0.288 ± 0.011 | protein stability index (Saccharomyces cerevisiae [2]; [4]): 0.314 ± 0.017 | protein stability index (Saccharomyces cerevisiae [2]; [5]): 0.25 ± 0.025 | protein stability index (Saccharomyces cerevisiae [2]; [6]): 0.3619 ± 0.0011 | protein stability index (Saccharomyces cerevisiae [2]; [7]): 0.212 ± 0.0053 | protein stability index (Saccharomyces cerevisiae [2]; [8]): 0.237 ± 0.02 | protein stability index (Saccharomyces cerevisiae [2]; [9]): 0.356 ± 0.024

WIYKIVTYEKKS
protein stability index (Saccharomyces cerevisiae [1]): 0.145 ± 0.049 | protein stability index (Saccharomyces cerevisiae [2]; [3]): 0.701 ± 0.05 | protein stability index (Saccharomyces cerevisiae [2]; [4]): 0.701 ± 0.03 | protein stability index (Saccharomyces cerevisiae [2]; [5]): 0.648 ± 0.041 | protein stability index (Saccharomyces cerevisiae [2]; [6]): 0.705 ± 0.029 | protein stability index (Saccharomyces cerevisiae [2]; [7]): 0.633 ± 0.038 | protein stability index (Saccharomyces cerevisiae [2]; [8]): 0.633 ± 0.036 | protein stability index (Saccharomyces cerevisiae [2]; [9]): 0.702 ± 0.0082

WLGLFAFRRCLV
protein stability index (Saccharomyces cerevisiae [1]): 0.31 ± 0.018 | protein stability index (Saccharomyces cerevisiae [2]; [3]): 0.544 ± 0.03 | protein stability index (Saccharomyces cerevisiae [2]; [4]): 0.583 ± 0.013 | protein stability index (Saccharomyces cerevisiae [2]; [5]): 0.463 ± 0.018 | protein stability index (Saccharomyces cerevisiae [2]; [6]): 0.5898 ± 0.0041 | protein stability index (Saccharomyces cerevisiae [2]; [7]): 0.194 ± 0.012 | protein stability index (Saccharomyces cerevisiae [2]; [8]): 0.223 ± 0.025 | protein stability index (Saccharomyces cerevisiae [2]; [9]): 0.3983 ± 0.0017

WLVIWPRKLSTV
protein stability index (Saccharomyces cerevisiae [1]): 0.481 ± 0.0083 | protein stability index (Saccharomyces cerevisiae [2]; [3]): 0.588 ± 0.039 | protein stability index (Saccharomyces cerevisiae [2]; [4]): 0.632 ± 0.005 | protein stability index (Saccharomyces cerevisiae [2]; [5]): 0.477 ± 0.027 | protein stability index (Saccharomyces cerevisiae [2]; [6]): 0.6179 ± 0.0036 | protein stability index (Saccharomyces cerevisiae [2]; [7]): 0.359 ± 0.014 | protein stability index (Saccharomyces cerevisiae [2]; [8]): 0.397 ± 0.022 | protein stability index (Saccharomyces cerevisiae [2]; [9]): 0.573 ± 0.031

WLVVGGVVLLVV
protein stability index (Saccharomyces cerevisiae [1]): 0.252 ± 0.0089 | protein stability index (Saccharomyces cerevisiae [2]; [3]): 0.246 ± 0.029 | protein stability index (Saccharomyces cerevisiae [2]; [4]): 0.28548 ± 0.00015 | protein stability index (Saccharomyces cerevisiae [2]; [5]): 0.213 ± 0.033 | protein stability index (Saccharomyces cerevisiae [2]; [6]): 0.395 ± 0.009 | protein stability index (Saccharomyces cerevisiae [2]; [7]): 0.175 ± 0.0046 | protein stability index (Saccharomyces cerevisiae [2]; [8]): 0.197 ± 0.026 | protein stability index (Saccharomyces cerevisiae [2]; [9]): 0.37 ± 0.0047

WRLRIAAVVRSS
protein stability index (Saccharomyces cerevisiae [1]): 0.281 ± 0.028 | protein stability index (Saccharomyces cerevisiae [2]; [3]): 0.556 ± 0.047 | protein stability index (Saccharomyces cerevisiae [2]; [4]): 0.655 ± 0.031 | protein stability index (Saccharomyces cerevisiae [2]; [5]): 0.586 ± 0.011 | protein stability index (Saccharomyces cerevisiae [2]; [6]): 0.6471 ± 0.0012 | protein stability index (Saccharomyces cerevisiae [2]; [7]): 0.123 ± 0.0017 | protein stability index (Saccharomyces cerevisiae [2]; [8]): 0.142 ± 0.021 | protein stability index (Saccharomyces cerevisiae [2]; [9]): 0.287 ± 0.016

WRVVVSCALHVC
protein stability index (Saccharomyces cerevisiae [1]): 0.085736 ± 1.1e-05 | protein stability index (Saccharomyces cerevisiae [2]; [3]): 0.123 ± 0.014 | protein stability index (Saccharomyces cerevisiae [2]; [4]): 0.167 ± 0.0054 | protein stability index (Saccharomyces cerevisiae [2]; [5]): 0.169 ± 0.017 | protein stability index (Saccharomyces cerevisiae [2]; [6]): 0.274 ± 0.0034 | protein stability index (Saccharomyces cerevisiae [2]; [7]): 0.0395 ± 0.017 | protein stability index (Saccharomyces cerevisiae [2]; [8]): 0.0423 ± 0.009 | protein stability index (Saccharomyces cerevisiae [2]; [9]): 0.0863 ± 0.026

WSCFLLLLSLSL
protein stability index (Saccharomyces cerevisiae [1]): 0.45 ± 0.0067 | protein stability index (Saccharomyces cerevisiae [2]; [3]): 0.424 ± 0.056 | protein stability index (Saccharomyces cerevisiae [2]; [4]): 0.4452 ± 0.0035 | protein stability index (Saccharomyces cerevisiae [2]; [5]): 0.417 ± 0.039 | protein stability index (Saccharomyces cerevisiae [2]; [6]): 0.5236 ± 0.0051 | protein stability index (Saccharomyces cerevisiae [2]; [7]): 0.482 ± 0.013 | protein stability index (Saccharomyces cerevisiae [2]; [8]): 0.411 ± 0.011 | protein stability index (Saccharomyces cerevisiae [2]; [9]): 0.496 ± 0.011

WSFAPRLRCSYL
protein stability index (Saccharomyces cerevisiae [1]): 0.809 ± 0.055 | protein stability index (Saccharomyces cerevisiae [2]; [3]): 0.927 ± 0.0095 | protein stability index (Saccharomyces cerevisiae [2]; [4]): 0.925 ± 0.012 | protein stability index (Saccharomyces cerevisiae [2]; [5]): 0.784 ± 0.029 | protein stability index (Saccharomyces cerevisiae [2]; [6]): 0.883 ± 0.012 | protein stability index (Saccharomyces cerevisiae [2]; [7]): 0.7642 ± 0.004 | protein stability index (Saccharomyces cerevisiae [2]; [8]): 0.792 ± 0.048 | protein stability index (Saccharomyces cerevisiae [2]; [9]): 0.878 ± 0.029

WSMSSPPLLLAS
protein stability index (Saccharomyces cerevisiae [1]): 0.36 ± 0.0058 | protein stability index (Saccharomyces cerevisiae [2]; [3]): 0.314 ± 0.014 | protein stability index (Saccharomyces cerevisiae [2]; [4]): 0.301 ± 0.017 | protein stability index (Saccharomyces cerevisiae [2]; [5]): 0.272 ± 0.017 | protein stability index (Saccharomyces cerevisiae [2]; [6]): 0.377 ± 0.0019 | protein stability index (Saccharomyces cerevisiae [2]; [7]): 0.22 ± 0.0085 | protein stability index (Saccharomyces cerevisiae [2]; [8]): 0.276 ± 0.013 | protein stability index (Saccharomyces cerevisiae [2]; [9]): 0.349 ± 0.019

WVIWFFVAACLR
protein stability index (Saccharomyces cerevisiae [1]): 0.3339 ± 0.00096 | protein stability index (Saccharomyces cerevisiae [2]; [3]): 0.219 ± 0.006 | protein stability index (Saccharomyces cerevisiae [2]; [4]): 0.24 ± 0.018 | protein stability index (Saccharomyces cerevisiae [2]; [5]): 0.209 ± 0.024 | protein stability index (Saccharomyces cerevisiae [2]; [6]): 0.347 ± 0.025 | protein stability index (Saccharomyces cerevisiae [2]; [7]): 0.239 ± 0.0077 | protein stability index (Saccharomyces cerevisiae [2]; [8]): 0.212 ± 0.022 | protein stability index (Saccharomyces cerevisiae [2]; [9]): 0.311 ± 0.0079

WVVVGWVGVGFR
protein stability index (Saccharomyces cerevisiae [1]): 0.445 ± 0.029 | protein stability index (Saccharomyces cerevisiae [2]; [3]): 0.508 ± 0.029 | protein stability index (Saccharomyces cerevisiae [2]; [4]): 0.548 ± 0.038 | protein stability index (Saccharomyces cerevisiae [2]; [5]): 0.383 ± 0.027 | protein stability index (Saccharomyces cerevisiae [2]; [6]): 0.5747 ± 0.0021 | protein stability index (Saccharomyces cerevisiae [2]; [7]): 0.361 ± 0.019 | protein stability index (Saccharomyces cerevisiae [2]; [8]): 0.378 ± 0.016 | protein stability index (Saccharomyces cerevisiae [2]; [9]): 0.55387 ± 0.00053

WVVWVLVGGFGG
protein stability index (Saccharomyces cerevisiae [1]): 0.384 ± 0.032 | protein stability index (Saccharomyces cerevisiae [2]; [3]): 0.299 ± 0.022 | protein stability index (Saccharomyces cerevisiae [2]; [4]): 0.42448 ± 0.00021 | protein stability index (Saccharomyces cerevisiae [2]; [5]): 0.277 ± 0.036 | protein stability index (Saccharomyces cerevisiae [2]; [6]): 0.4813 ± 0.0047 | protein stability index (Saccharomyces cerevisiae [2]; [7]): 0.232 ± 0.0043 | protein stability index (Saccharomyces cerevisiae [2]; [8]): 0.266 ± 0.021 | protein stability index (Saccharomyces cerevisiae [2]; [9]): 0.449 ± 0.03

WVVWWFACVFGV
protein stability index (Saccharomyces cerevisiae [1]): 0.309 ± 0.049 | protein stability index (Saccharomyces cerevisiae [2]; [3]): 0.346 ± 0.009 | protein stability index (Saccharomyces cerevisiae [2]; [4]): 0.404 ± 0.0089 | protein stability index (Saccharomyces cerevisiae [2]; [5]): 0.286 ± 0.033 | protein stability index (Saccharomyces cerevisiae [2]; [6]): 0.429 ± 0.019 | protein stability index (Saccharomyces cerevisiae [2]; [7]): 0.264 ± 0.008 | protein stability index (Saccharomyces cerevisiae [2]; [8]): 0.28 ± 0.019 | protein stability index (Saccharomyces cerevisiae [2]; [9]): 0.413 ± 0.0073

WVYVFVSLFFVV
protein stability index (Saccharomyces cerevisiae [1]): 0.263 ± 0.0029 | protein stability index (Saccharomyces cerevisiae [2]; [3]): 0.185 ± 0.0071 | protein stability index (Saccharomyces cerevisiae [2]; [4]): 0.2552 ± 0.0011 | protein stability index (Saccharomyces cerevisiae [2]; [5]): 0.204 ± 0.029 | protein stability index (Saccharomyces cerevisiae [2]; [6]): 0.347 ± 0.013 | protein stability index (Saccharomyces cerevisiae [2]; [7]): 0.196 ± 0.017 | protein stability index (Saccharomyces cerevisiae [2]; [8]): 0.17 ± 0.018 | protein stability index (Saccharomyces cerevisiae [2]; [9]): 0.289 ± 0.0062

WYLLCESCLLCL
protein stability index (Saccharomyces cerevisiae [1]): 0.494 ± 0.0075 | protein stability index (Saccharomyces cerevisiae [2]; [3]): 0.534 ± 0.021 | protein stability index (Saccharomyces cerevisiae [2]; [4]): 0.536 ± 0.0079 | protein stability index (Saccharomyces cerevisiae [2]; [5]): 0.406 ± 0.025 | protein stability index (Saccharomyces cerevisiae [2]; [6]): 0.562 ± 0.011 | protein stability index (Saccharomyces cerevisiae [2]; [7]): 0.39 ± 0.013 | protein stability index (Saccharomyces cerevisiae [2]; [8]): 0.408 ± 0.025 | protein stability index (Saccharomyces cerevisiae [2]; [9]): 0.558 ± 0.0046

WYVRVYVLSVES
protein stability index (Saccharomyces cerevisiae [1]): 0.237 ± 0.019 | protein stability index (Saccharomyces cerevisiae [2]; [3]): 0.136 ± 0.021 | protein stability index (Saccharomyces cerevisiae [2]; [4]): 0.176 ± 0.028 | protein stability index (Saccharomyces cerevisiae [2]; [5]): 0.186 ± 0.029 | protein stability index (Saccharomyces cerevisiae [2]; [6]): 0.3115 ± 0.0015 | protein stability index (Saccharomyces cerevisiae [2]; [7]): 0.137 ± 0.0079 | protein stability index (Saccharomyces cerevisiae [2]; [8]): 0.168 ± 0.018 | protein stability index (Saccharomyces cerevisiae [2]; [9]): 0.264 ± 0.022
